Assay results published in the supplement of paper PMC10126150.
± gives the standard deviation of the averaged measurements.

Each sequence was assayed on ATP (assay: switch fluorescence ratio, 500 uM ATP over buffer (Cy3 cluster intensity, sum of 5 cycles each) (fold (ratio)); higher = stronger signal-on switching upon ATP binding; sequences stand for … in TCGTCGGCAGCGTCAGATGTGTATAAGAGACAGTTTTTTTTTTTTTTTTTTTTTTTTT…TC). Settings: aptamer strand: ATP DNA aptamer (quencher-CACCTGGGGGAGTATTGCGGAGGAAGG + anchor), 100 nM annealed; ATP concentration: 500 uM.
Procedure, shortened: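 The quencher-labelled ATP aptamer, at 100 nM, was annealed to Cy3-labelled switching-strand clusters on a modified Illumina MiSeq flow-cell. The clusters were imaged in selection buffer, then after 15 min with 500 uM ATP at 22 °C, and this buffer/ATP cycle ran five times with NaOH stripping and re-annealing between runs. Per-cluster fluorescence ratios, summed target-cycle over summed buffer-cycle Cy3 intensity, were averaged per switch-domain sequence. Clusters outside 100-1000 RFU were excluded.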
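Note: ATP exposure 15 min at 22 °C before imaging.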

TAGTGCACGG and TAGCTTTGGG are within error of each other in switch fluorescence ratio: 0.995 ± 0.039 for the first, 1 ± 0.011 for the second.

GGGGCTTTAT and CCTAGGGTTT are within error of each other in switch fluorescence ratio: 0.992 ± 0.013 for the first, 1 ± 0.038 for the second.

TTTTTATAAA and TTGGAACGAT are within error of each other in switch fluorescence ratio: 1.01 ± 0.039 for the first, 1.02 ± 0.07 for the second.

TAACGAAAAA and ACATGCTACG are within error of each other in switch fluorescence ratio: 1.03 ± 0.062 for the first, 1.05 ± 0.034 for the second.

CGTATTGAGA and TTCCTTTTAA are within error of each other in switch fluorescence ratio: 0.968 ± 0.057 for the first, 1.04 ± 0.055 for the second.

AAATGTTTGG and AAATTTTGGG are within error of each other in switch fluorescence ratio: 1.01 ± 0.017 for the first, 1 ± 0.019 for the second.

First: AGGGTAGGTG
Second: GTTATTTTAC
The switch fluorescence ratio of the first is higher: 1.09 ± 0.012 for the first, 1.01 ± 0.031 for the second.

GCGGGGGCAA and TATCGGGGTG are within error of each other in switch fluorescence ratio: 1.0292 ± 0.00013 for the first, 0.996 ± 0.053 for the second.

First: CACTGGAGAA
Second: TGTAACGCTG
The switch fluorescence ratio of the first is higher: 1.044 ± 0.0051 for the first, 0.974 ± 0.057 for the second.

GCGTAAGCGG and TATGGGCGCG are within error of each other in switch fluorescence ratio: 0.981 ± 0.017 for the first, 1.11 ± 0.23 for the second.

AAGGGACTGC and CGGGGGGA are within error of each other in switch fluorescence ratio: 0.97 ± 0.018 for the first, 1.39 ± 0.54 for the second.

Compared with GGTTTTGGGA, GACAAAAAAA is higher in switch fluorescence ratio: 0.998 ± 0.019 for the first, 1.06 ± 0.012 for the second.

AATGTTTGTT and CGTGAAGGGT are within error of each other in switch fluorescence ratio: 0.971 ± 0.015 for the first, 0.992 ± 0.013 for the second.

Going from ATTTACCGAA to GTCTTGGGTA, the switch fluorescence ratio falls from 1.05 ± 0.019 to 0.963 ± 0.024.

TGTTTGTCTT and TCACAGTAAT are within error of each other in switch fluorescence ratio: 1 ± 0.069 for the first, 1.13 ± 0.063 for the second.

AATACGGTAT and GTGGTTGGGG are within error of each other in switch fluorescence ratio: 1.05 ± 0.05 for the first, 1.01 ± 0.028 for the second.

TCGGTTCCCG and AAGTTGTGA are within error of each other in switch fluorescence ratio: 0.981 ± 0.018 for the first, 0.973 ± 0.035 for the second.

TGCTAGGGAA and AAGATGGAGG are within error of each other in switch fluorescence ratio: 0.975 ± 0.015 for the first, 0.973 ± 0.037 for the second.

AGGGGTATCT and AGAGTAGTGT are within error of each other in switch fluorescence ratio: 0.9739 ± 0.007 for the first, 0.99 ± 0.032 for the second.

First: AAGGGGCTTG
Second: TCTGTAGCTG
The switch fluorescence ratio of the first is lower: 0.986 ± 0.036 for the first, 1.3 ± 0.015 for the second.

TGAAAAATTG and TAAAAAAGCC are within error of each other in switch fluorescence ratio: 0.985 ± 0.053 for the first, 1.03 ± 0.091 for the second.

AGTAACCGGC and AGATTGTTTA are within error of each other in switch fluorescence ratio: 0.967 ± 0.12 for the first, 0.981 ± 0.019 for the second.

TAGCTTGGCA and TTTCAAACCC are within error of each other in switch fluorescence ratio: 0.991 ± 0.048 for the first, 0.995 ± 0.013 for the second.

GGGGCTGGTT and GCTCTATTTT are within error of each other in switch fluorescence ratio: 0.99 ± 0.024 for the first, 0.997 ± 0.019 for the second.

CAGGTAGGTT and ATCTTAATG are within error of each other in switch fluorescence ratio: 1.02 ± 0.068 for the first, 1.01 ± 0.05 for the second.

GACGGGGACA and TTTTTTCAAT are within error of each other in switch fluorescence ratio: 1.06 ± 0.023 for the first, 1.03 ± 0.029 for the second.

Going from AAAAGAAGCA to GGATAATATT, the switch fluorescence ratio rises from 0.948 ± 0.026 to 1.05 ± 0.026.

ATTTAATTAC and TGGGGTTTGA are within error of each other in switch fluorescence ratio: 1.02 ± 0.0013 for the first, 0.997 ± 0.032 for the second.

Compared with AACGCGAACG, AGTAGAATGG is lower in switch fluorescence ratio: 1.06 ± 0.016 for the first, 1.001 ± 0.0004 for the second.

GTTTTTCGGG and AGGCTAAGAT are within error of each other in switch fluorescence ratio: 0.981 ± 0.034 for the first, 1.0077 ± 0.001 for the second.

AGACTGGGCT and GGGAAAAGGC are within error of each other in switch fluorescence ratio: 1.01 ± 0.011 for the first, 1.02 ± 0.035 for the second.

AGGACCAGGT and CGGAGAGAGG are within error of each other in switch fluorescence ratio: 1.02 ± 0.025 for the first, 1.01 ± 0.015 for the second.

CAGAGGGGGC and AAGTGGTTA are within error of each other in switch fluorescence ratio: 1.012 ± 0.0071 for the first, 0.981 ± 0.026 for the second.

TGGGTAGGGA and GAGATCGTAT are within error of each other in switch fluorescence ratio: 0.9759 ± 0.0093 for the first, 0.991 ± 0.017 for the second.

Going from GGGTAAAAAA to AAACTGCTCC, the switch fluorescence ratio rises from 1.02 ± 0.045 to 1.517 ± 0.012.

GTTGAGCGGG and GAGTGGGCGG are within error of each other in switch fluorescence ratio: 0.9786 ± 0.0069 for the first, 0.996 ± 0.071 for the second.

GGACCAAAAG and CGGGCTTGGT are within error of each other in switch fluorescence ratio: 1.002 ± 0.0067 for the first, 1.01 ± 0.032 for the second.

GATAATTTCT and TTTATCAGTT are within error of each other in switch fluorescence ratio: 0.9886 ± 0.0046 for the first, 0.951 ± 0.035 for the second.

TTCGTTATTA and ATAAAGGGCT are within error of each other in switch fluorescence ratio: 1.34 ± 0.42 for the first, 0.988 ± 0.054 for the second.

TCTATCATGA and CGAAATGTAA are within error of each other in switch fluorescence ratio: 0.988 ± 0.013 for the first, 0.992 ± 0.024 for the second.

Going from TGTTAGTTAC to GGGACGTTAG, the switch fluorescence ratio rises from 1.03 ± 0.025 to 1.09 ± 0.034.

GGGAATGATC and TTAGAGTGCA are within error of each other in switch fluorescence ratio: 1.01 ± 0.034 for the first, 1.02 ± 0.019 for the second.

GGGTATCGGG and TTGTGTGTCA are within error of each other in switch fluorescence ratio: 0.98857 ± 0.00067 for the first, 0.994 ± 0.022 for the second.

TTGCAGGTGG and AAGGGTGCGT are within error of each other in switch fluorescence ratio: 1.03 ± 0.011 for the first, 1.01 ± 0.044 for the second.

GGGGACGGTA and ATGTAACCGT are within error of each other in switch fluorescence ratio: 1.03 ± 0.027 for the first, 1.01 ± 0.012 for the second.

Compared with GGGGAGTTCG, GGGGAAAGGC is higher in switch fluorescence ratio: 0.983 ± 0.019 for the first, 1.02 ± 0.018 for the second.

Going from ATAGTTATTT to CCTGGGATT, the switch fluorescence ratio rises from 0.989 ± 0.014 to 1.02 ± 0.011.

TCGCGGTGGC and CGTAAAACTA are within error of each other in switch fluorescence ratio: 1 ± 0.029 for the first, 1.03 ± 0.042 for the second.

Compared with GGGCTTTTTT, TTTACGAGTG is higher in switch fluorescence ratio: 0.98 ± 0.018 for the first, 1.03 ± 0.019 for the second.

AATGAGATCG and GGGTGATCGT are within error of each other in switch fluorescence ratio: 1.01 ± 0.016 for the first, 0.997 ± 0.013 for the second.

GGGTTTGTTG and TGATCCTTGG are within error of each other in switch fluorescence ratio: 0.988 ± 0.026 for the first, 1.03 ± 0.031 for the second.

AGAAGATTGA and AGATAGAGTA are within error of each other in switch fluorescence ratio: 0.999 ± 0.019 for the first, 1.006 ± 0.0033 for the second.

Compared with AGTAACGGTG, CATTTGGGTA is lower in switch fluorescence ratio: 1.034 ± 0.0019 for the first, 1.01 ± 0.014 for the second.

Going from GGGGTACCCA to TGTCGTTTAC, the switch fluorescence ratio rises from 0.993 ± 0.018 to 1.05 ± 0.021.

First: GCGGTACGCG
Second: GCACGGGCAC
The switch fluorescence ratio of the first is lower: 0.953 ± 0.012 for the first, 1.18 ± 0.18 for the second.

ACTGGGCGGA and TATGTGGGAA are within error of each other in switch fluorescence ratio: 0.996 ± 0.015 for the first, 1.01 ± 0.062 for the second.

GATGGCGGTG and ATTTGATATG are within error of each other in switch fluorescence ratio: 0.995 ± 0.00091 for the first, 0.965 ± 0.031 for the second.

CAGCATAAAG and TTAGCGTGGG are within error of each other in switch fluorescence ratio: 1.02 ± 0.057 for the first, 0.99 ± 0.023 for the second.

GAAGGGGAAA and TATGGATTAT are within error of each other in switch fluorescence ratio: 1 ± 0.045 for the first, 1.02 ± 0.081 for the second.

CGCTGGGGGG and CGATTTGACT are the same in switch fluorescence ratio: 1.02 ± 0.048 for the first, 1.02 ± 0.037 for the second.

GGGGAGGAAT and AAGGGGTGCA are within error of each other in switch fluorescence ratio: 0.971 ± 0.024 for the first, 0.968 ± 0.058 for the second.

Going from ACTTGCACTC to TGAGAGACGG, the switch fluorescence ratio falls from 1.34 ± 0.057 to 0.968 ± 0.063.

Going from GCAAGAACGC to CCTATTATTA, the switch fluorescence ratio falls from 1.096 ± 0.0023 to 1.02 ± 0.028.

Going from GAAGCTAGTA to TGAGGTTAAC, the switch fluorescence ratio falls from 1.02 ± 0.024 to 0.957 ± 0.023.

Going from CTATAGTAGG to TGGGTTACTA, the switch fluorescence ratio rises from 0.9849 ± 0.0029 to 1.002 ± 0.0097.

TCTGAAGGAG and ATTGCCACGG are within error of each other in switch fluorescence ratio: 1.01 ± 0.013 for the first, 1.033 ± 0.0089 for the second.

GCAGTGGGTG and TGCAACCTTT are within error of each other in switch fluorescence ratio: 0.998 ± 0.012 for the first, 1.02 ± 0.014 for the second.

CTATTTAGCC and AGCTTATGGT are within error of each other in switch fluorescence ratio: 1.02 ± 0.063 for the first, 0.962 ± 0.049 for the second.

First: GAACGATACA
Second: GGAAAGTAAA
The switch fluorescence ratio of the first is higher: 1.334 ± 0.012 for the first, 0.982 ± 0.014 for the second.

AAGGCAGGGC and AGCCGGCTGC are within error of each other in switch fluorescence ratio: 0.972 ± 0.04 for the first, 1.03 ± 0.024 for the second.

CGGCTTAATA and TTGGGCGGAA are within error of each other in switch fluorescence ratio: 1.02 ± 0.019 for the first, 1.03 ± 0.071 for the second.

GGGTGCAAGC and TTTTACGCTT are within error of each other in switch fluorescence ratio: 1.058 ± 0.0049 for the first, 1.04 ± 0.017 for the second.

TGGTAGAAGG and TAAGGGCGGC are within error of each other in switch fluorescence ratio: 0.954 ± 0.013 for the first, 0.995 ± 0.043 for the second.

ATGGGACGGC and CCATTTTTTA are within error of each other in switch fluorescence ratio: 0.998 ± 0.032 for the first, 0.9825 ± 0.0097 for the second.

CTTCTGTGGG and TTCTACTGAT are within error of each other in switch fluorescence ratio: 1.027 ± 0.0036 for the first, 1.32 ± 0.39 for the second.

Compared with ATATCAATGG, TTTTTCTAAA is lower in switch fluorescence ratio: 1.058 ± 0.0082 for the first, 0.9834 ± 0.0074 for the second.

Compared with AAAAATTCTG, TCTGTTCTTG is lower in switch fluorescence ratio: 1.02 ± 0.014 for the first, 0.987 ± 0.012 for the second.

AGGGGCGGCG and TTTTGGGGAC are within error of each other in switch fluorescence ratio: 1.01 ± 0.061 for the first, 0.988 ± 0.043 for the second.

Sequence TTGTGAAATT has a switch fluorescence ratio of 0.993 ± 0.015.
